Test results as given in patent US20070253966A1.

Biological target: human GLP-1 receptor (human) (UniProt P43220)
Experiment: cell-based or functional assay

UniProt P43220, sequence (P43220 24-463): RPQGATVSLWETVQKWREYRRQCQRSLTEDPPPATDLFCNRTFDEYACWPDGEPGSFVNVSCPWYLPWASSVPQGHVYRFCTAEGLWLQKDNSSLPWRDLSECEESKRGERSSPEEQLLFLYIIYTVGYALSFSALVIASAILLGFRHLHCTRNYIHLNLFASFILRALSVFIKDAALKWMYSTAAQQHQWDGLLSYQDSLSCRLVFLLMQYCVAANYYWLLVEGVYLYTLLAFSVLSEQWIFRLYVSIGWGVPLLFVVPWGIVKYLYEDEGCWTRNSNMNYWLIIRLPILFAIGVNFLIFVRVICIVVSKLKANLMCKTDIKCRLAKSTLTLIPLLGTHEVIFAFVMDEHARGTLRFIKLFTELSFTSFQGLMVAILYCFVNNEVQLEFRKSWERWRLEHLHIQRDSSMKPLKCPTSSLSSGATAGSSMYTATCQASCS

Substance	Activity (EC50 relative to Val^8-GLP-1(7-37)OH), CRE-BLAM beta-lactamase reporter in HEK-293 cells expressing human GLP-1 receptor [%]	Activity (EC50 relative to Val^8-GLP-1(7-37)OH, corrected for 2-fold molarity of the dimer), CRE-Luciferase reporter in HEK-293 cells stably expressing human GLP-1 receptor [%]	Activity (EC50 relative to Val^8-GLP-1(7-37)OH), CRE-Luciferase reporter in HEK-293 cells stably expressing human GLP-1 receptor [%]
Gly^8-Glu^22-GLP-1(7-37)-1.5L-IgG4 (S228P, F234A, L235A) (from UniProt P01275 98-128) (Fc fusion)	314	595	
Gly^8-Glu^22-GLP-1(7-37)-1L-IgG4 (S228P, F234A, L235A) (from UniProt P01275 98-128) (Fc fusion)	468	1120	
Gly^8-Glu^22-GLP-1(7-37)-2L-IgG4 (S228P, F234A, L235A) (from UniProt P01275 98-128) (Fc fusion)	301	535	
Val^8-GLP-1(7-37)OH (from UniProt P01275 21-180) (peptide)	100		100
